Paper PMC3936768, “Transcription factor abundance controlled by an auto-regulatory mechanism involving a transcription start site switch”

T1: ZNF143 DBD (UniProt P52747 237-440)
T1 sequence: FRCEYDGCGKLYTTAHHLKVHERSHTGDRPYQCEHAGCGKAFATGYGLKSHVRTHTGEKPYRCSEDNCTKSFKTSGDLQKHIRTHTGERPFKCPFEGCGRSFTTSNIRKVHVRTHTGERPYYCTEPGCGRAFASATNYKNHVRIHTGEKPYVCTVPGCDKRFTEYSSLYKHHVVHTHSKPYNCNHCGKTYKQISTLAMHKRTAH

B1: SBS/B (dsDNA)
DNA 1: TGTCCTGGTGCATGGTGGTCGGA
DNA 2: TCCGACCACCATGCACCAGGACA
B2: SBS/C (dsDNA)
DNA 1: TTTTACCCAGTGTGCATTATTCTCC
DNA 2: GGAGAATAATGCACACTGGGTAAAA
B3: SBS/A (dsDNA)
DNA 1: CAGCCCAATGGAAGCTGGGGGCG
DNA 2: CGCCCCCAGCTTCCATTGGGCTG
B4: mut SBS/C- (dsDNA)
DNA 1: GTTTTTAAAACGTGTGCATTATTCTCC
DNA 2: GGAGAATAATGCACACGTTTTAAAAAC
B5: mut SBS/B- (dsDNA)
DNA 1: CGATTACCATGCACCAGGACAGG
DNA 2: CCTGTCCTGGTGCATGGTAATCG

Target: T1, ZNF143 DBD
Test: EMSA; 20 fmol 32P probe; 4% native PAGE in 0.25x TBE; competition: 20 min preincubation at room temperature, 10 uL; buffer as in ref 33 (not given); competitor excess 200-fold (Methods) or 1000-fold (Fig 2E legend)
Settings: protein: recombinant, blunt

Binder | binding result | binding result (label: 5' 32P)
B1 | binds | –
B2 | binds | –
B3 | – | no binding
B4 | – | no binding
B5 | – | no binding
